Source: US20150150950

Experiments:
[1] = system: inactive wildtype GST-GSK3β (K^84A kinase inactivating mutation)
[2] = system: GST-GSK3α (Cell Signaling, boiled to inactivate)
[3] = system: GST-GSK3β T^390A/T^43A double mutant (kinase inactive, K^84A)
[4] = system: purified active wildtype GST-GSK3β
[5] = system: active GST-GSK3β-T^43A mutant
[6] = system: GST-GSK3β T^390A mutant (kinase inactive, K^84A)
[7] = system: Recombinant kinase-active GSK3α
[8] = system: GST-GSK3β T^43A mutant (kinase inactive, K^84A)
[9] = system: active GST-GSK3β-T^390A mutant

Sequence of purified recombinant active p38 MAPK (Cell Signaling) (Q16539 2-360): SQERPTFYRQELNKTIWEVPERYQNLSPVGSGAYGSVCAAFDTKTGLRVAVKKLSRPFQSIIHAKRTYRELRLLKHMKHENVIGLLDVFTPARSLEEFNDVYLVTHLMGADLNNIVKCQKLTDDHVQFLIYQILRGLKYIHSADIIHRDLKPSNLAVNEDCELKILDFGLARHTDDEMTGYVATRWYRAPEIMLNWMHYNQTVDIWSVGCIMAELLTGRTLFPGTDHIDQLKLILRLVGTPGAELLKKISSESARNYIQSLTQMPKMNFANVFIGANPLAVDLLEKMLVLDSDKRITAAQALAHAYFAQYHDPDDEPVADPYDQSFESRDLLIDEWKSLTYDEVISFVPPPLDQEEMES
Sequence of Recombinant kinase-active GSK3α (P49840 2-483): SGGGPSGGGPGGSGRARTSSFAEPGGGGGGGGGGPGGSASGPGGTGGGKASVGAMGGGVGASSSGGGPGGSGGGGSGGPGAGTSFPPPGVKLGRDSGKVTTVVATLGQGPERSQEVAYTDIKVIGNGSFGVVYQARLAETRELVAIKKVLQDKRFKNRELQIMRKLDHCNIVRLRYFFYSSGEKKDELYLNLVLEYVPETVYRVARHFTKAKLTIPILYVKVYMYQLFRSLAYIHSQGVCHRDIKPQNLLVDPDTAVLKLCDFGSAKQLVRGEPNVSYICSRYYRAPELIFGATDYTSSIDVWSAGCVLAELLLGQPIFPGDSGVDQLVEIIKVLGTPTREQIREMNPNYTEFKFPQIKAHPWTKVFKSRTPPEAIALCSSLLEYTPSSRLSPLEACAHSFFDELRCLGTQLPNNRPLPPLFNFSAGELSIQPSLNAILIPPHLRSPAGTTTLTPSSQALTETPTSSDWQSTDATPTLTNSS
Sequence of p38 MAPK in 293T cells (Q16539 2-360): as the sequence (Q16539 2-360) above

Substance: p38 MAPK in 293T cells
- in vitro p38 MAP kinase assay (^32P incorporation into GSK3β) [1]: p38 MAPK immunoprecipitated from MKK6 thymocytes or MKK6-transfected 293T cells phosphorylated recombinant catalytically-inactive GSK3β in vitro and this phosphorylation was blocked by the p38 MAPK inhibitor

Substance: purified recombinant active p38 MAPK (Cell Signaling)
- in vitro kinase assay (^32P incorporation into GSK3α) [2]: GSK3α was not phosphorylated by recombinant p38 MAPK in vitro
- in vitro kinase assay (^32P incorporation) [3]: phosphorylation of the GSK3β-T^43A/T^390A mutant was abrogated
- GSK3β activity (in vitro kinase assay, GSM substrate peptide) after preincubation with p38 MAPK [4]: p38 MAPK inhibited both wild-type GSK3β and GSK3β-T^43A mutant
- GSK3β activity (in vitro kinase assay, GSM substrate peptide) after preincubation with p38 MAPK [5]: p38 MAPK inhibited both wild-type GSK3β and GSK3β-T^43A mutant
- in vitro kinase assay (^32P incorporation) [6]: Phosphorylation of the GSK3β-T^390A mutant by p38 MAPK was partially reduced but not abrogated
- GSK3α activity (in vitro kinase assay, GSM substrate peptide) after preincubation with p38 MAPK [7]: p38 MAPK did not affect the activity of GSK3α
- in vitro kinase assay (^32P incorporation into GSK3β) [1]: A purified recombinant activated p38 MAPK also phosphorylated GSK3β in vitro and this phosphorylation was blocked by SB203580
- in vitro kinase assay (^32P incorporation) [8]: p38 MAPK was still able to partially phosphorylate a GSK3β-T^43A mutant

Substance: recombinant active Akt (Cell Signaling)
- GSK3β activity (in vitro kinase assay, GSM substrate peptide) after preincubation with Akt [9]: Akt inhibited wild-type GSK3β and the two mutants
- GSK3β activity (in vitro kinase assay, GSM substrate peptide) after preincubation with Akt [4]: Akt inhibited wild-type GSK3β and the two mutants
- GSK3β activity (in vitro kinase assay, GSM substrate peptide) after preincubation with Akt [5]: Akt inhibited wild-type GSK3β and the two mutants

Substance: recombinant active ERK (Cell Signaling)
- in vitro kinase assay (^32P incorporation) [6]: The T^43A mutation but not the T^390A mutation abrogated phosphorylation of GSK3β by ERK
- in vitro kinase assay (^32P incorporation) [8]: The T^43A mutation but not the T^390A mutation abrogated phosphorylation of GSK3β by ERK
